{
  "source": "patent WO2009082624A2",
  "about": "(dated 2009)",
  "binders": {"B1": {"name": "human IL-23R-Fc soluble receptor (ZymoGenetics) (Fc fusion)", "chain": "GITNINCSGHIWVEPATIFKMGMNISIYCQAAIKNCQPRKLHFYKNGIKERFQITRINKTTARLWYKNFLEPHASMYCTAECPKHFQETLICGKDISSGYPPDIPDEVTCVIYEYSGNMTCTWNAGKLTYIDTKYVVHVKSLETEEEQQYLTSSYINISTDSLQGGKKYLVWVQAANALGMEESKQLQIHLDDIVIPSAAVISRAETINATVPKTIIYWDSQTTIEKVSCEMRYKATTNQTWNVKEFDTNFTYVQQSEFYLEPNIKYVFQVRCQETGKRYWQPWSSPFFHKTPETVPQVTSKAFQHDTWNSGLTVASISTGHLTSDNRGDIG"}},
  "key": {"[1]": {"target": "T1, human IL-23 (p19/p40 heterodimer), recombinant (human, UniProt Q9NPF7 20-189; P29460 23-328)", "T1 sequence 1": "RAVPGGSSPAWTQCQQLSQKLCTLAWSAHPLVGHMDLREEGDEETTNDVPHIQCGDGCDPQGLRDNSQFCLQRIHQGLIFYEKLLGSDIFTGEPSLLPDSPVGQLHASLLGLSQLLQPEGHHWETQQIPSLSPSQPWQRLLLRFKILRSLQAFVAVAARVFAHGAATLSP", "T1 sequence 2": "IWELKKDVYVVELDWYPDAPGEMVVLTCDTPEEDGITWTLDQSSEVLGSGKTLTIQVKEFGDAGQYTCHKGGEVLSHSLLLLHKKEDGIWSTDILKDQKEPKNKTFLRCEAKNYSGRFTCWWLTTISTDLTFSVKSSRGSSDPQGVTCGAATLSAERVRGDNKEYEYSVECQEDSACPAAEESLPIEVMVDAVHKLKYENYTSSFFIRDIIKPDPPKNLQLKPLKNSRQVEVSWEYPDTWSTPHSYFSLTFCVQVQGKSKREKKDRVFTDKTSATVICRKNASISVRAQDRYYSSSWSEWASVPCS", "assay": "cell-based or functional assay"}, "[2]": {"target": "T1, human IL-23 (p19/p40 heterodimer), …", "assay": "SPR off-rate analysis (Biacore T-100), IL-23 immobilised, 1:1 model"}, "[3]": {"target": "T1, human IL-23 (p19/p40 heterodimer), …", "assay": "SPR (Biacore T-100), IL-23 immobilised on CM5, bivalent interaction model"}},
  "data": [
    {"binder": "B1", "values": [
      {"measurement": "IC50, IL-23-mediated IL-17A/A production in murine splenocytes", "setting": "[1]", "result": 26, "unit": "nM"},
      {"measurement": "koff", "setting": "[2]", "result": "~0.0004", "unit": "s⁻¹"},
      {"measurement": "Kd", "setting": "[3]", "result": 0.8, "unit": "nM"}
    ]}
  ]
}
